Test results taken from patent US20220363762A1, “METHODS AND COMBINATIONS FOR THE TREATMENT OF CANCER USING IMMUNE CHECKPOINT INHIBITOR ANTIBODIES” (ASTRAZENECA AB, priority 2020, published 2022).

Tests used:
Type in all cases: in vivo, human
advanced HCC = experiment: Randomized, open-label, multi-center clinical study of durvalumab and tremelimumab (Example 2): efficacy; conditions: for ORR, % / Median (95% CI) OS, mo: Table 1, per study arm; for Median (95% CI) OS, mo: 95% CI in cell beside; for Median PFS (95% CI): patients with advanced HCC
Procedure: The study disclosed below is a randomized, open-label, multi-center, global, clinical study to assess the efficacy and safety of durvalumab monotherapy and durvalumab plus tremelimumab combination therapy versus sorafenib in the treatment of immune checkpoint inhibitor-naïve patients with HCC who progressed on, were intolerant to, or refused sorafenib. In the foregoing disclosure, a flat-dose regimen of 1500 mg (approximately equivalent to 20 mg/kg) of durvalumab plus 300 mg (equivalent to 4 mg/kg) of tremelimumab was used in this study.
The study population included patients 18 years of age or older with advanced HCC, Barcelona Clinic Liver Cancer Stage B (not eligible for locoregional therapy) or stage C, and Child-Pugh A classification liver disease. Patients must not have received any prior systemic therapy for HCC. Patients were stratified according to macrovascular invasion (yes versus no), etiology of liver disease (hepatitis B virus [confirmed HBV] versus hepatitis C virus [confirmed HCV] versus others), and performance status (Eastern Cooperative Oncology Group [ECOG] 0 versus 1).
A total of 332 patients were enrolled (T300+D, n=75; durvalumab, n=104; tremelimumab, n=69; T75+D, n=84). Patients were randomized in an equal ratio to groups treated with durvalumab 1500 mg monotherapy (D), tremelimumab 750 mg monotherapy (T), combination therapy with durvalumab 1500 mg plus tremelimumab 75 mg×4 doses (T75+D) followed by durvalumab Q4W, combination therapy with durvalumab 1500 mg plus tremelimumab 300 mg xl dose (T 300+D) followed by durvalumab Q4W. Upon closure to further enrollment into the T75+D arm, patients were randomized in an equal ratio to groups treated with D, T300+D, and Sorafenib. Durvalumab and tremelimumab were administered via intravenous (IV) infusion every 4 weeks (Q4W). Sorafenib was administered orally BID (see FIGS. 3 and 4).
(§1) Tremelimumab 750 mg via IV infusion Q4W starting at Week 0 for seven doses and then Q12W until confirmed PD, unacceptable toxicity, or any discontinuation criterion was met. (Note: If a patient's weight decreased to ≤30 kg, the patient received weight-based dosing of tremelimumab 10 mg/kg Q4W, until the weight increased to >30 kg, at which point the patient received the flat dose of tremelimumab 750 mg Q4W).
as §1, with “Durvalumab 1500 mg monotherapy • Durvalumab 1500” for “Tremelimumab 750”, “0” for “0 for seven doses and then Q12W”, “durvalumab 20” for “tremelimumab 10”, “durvalumab 1500” for “tremelimumab 750”, “Q4W.)” for “Q4W).”
Durvalumab 1500 mg plus tremelimumab 75 mg×4 doses combination therapy (Arm B) • Durvalumab 1500 mg plus tremelimumab 75 mg×4 doses starting at Week 0, followed by durvalumab 1500 mg monotherapy Q4W starting 4 weeks after the final infusion of the combination therapy until confirmed PD, unacceptable toxicity, or any discontinuation criteria was met. (Note: If a patient's weight decreased to 30 kg or below (≤30 kg), the patient received weight-based dosing of durvalumab 20 mg/kg Q4W and tremelimumab 1 mg/kg Q4W, until the weight increased to >30 kg, at which point the patient received the original assigned flat dose of durvalumab 1500 mg Q4W with or without tremelimumab 75 mg Q4W.)
Durvalumab 1500 mg plus tremelimumab 300 mg×1 dose combination therapy (Arm C) • Durvalumab 1500 mg plus tremelimumab 300 mg×1 dose starting at Week 0, followed by durvalumab 1500 mg monotherapy Q4W starting 4 weeks after the first and final infusion of the combination therapy until confirmed PD, unacceptable toxicity, or any discontinuation criteria was met. […]

[1] = system: peripheral blood T cell receptors (TCRs); experiment: Molecular analysis of peripheral blood T cell receptors (TCR clonal expansion); conditions: for Median expanded T cell clones at Day 29, n: Day 29, first cycle of Q4W dosing, spread in cell beside
Description: This trend was not seen with monotherapy D or the lower dose T combination (T75+D) (FIG. 15). Additionally, greater clonal expansion of T-cells was associated with better OS and seen in D+T combination arms (FIG. 16).

[2] = Tremelimumab trough concentration after the first dose (Cmin); conditions: 300 mg tremelimumab
Procedure: (§2) Finally, an exposure-response model was developed to describe the relationship between tremelimumab exposure and proliferating CD8+Ki67+ T cells in patients with uHCC. Relationships between tremelimumab trough concentration after the first dose (Cmin) and the maximum change from baseline (CFB) for CD8+ Ki67+ T cell counts were evaluated using linear and non-linear regression models. Covariate effects were evaluated on the model intercept and the drug effect (Emax) using a stepwise search approach. The relationship between CD8+ Ki67+ T cell count CFB and tremelimumab trough concentration was best described by an Emax model. The only statistically significant and well estimated covariate effect was the baseline CD8+ Ki67+ T cell count on Emax. The maximum effect was higher in patients with lower baseline CD8+ Ki67+ T cell counts and lower in patients with higher baseline CD8+ Ki67+ T cell counts. At the 10th, median, and 90th percentiles of baseline CD8+ (3, 9, and 25 cells/uL), the maximum effect is 593%, 341%, and 77.9% change from baseline, respectively.

[3] = system: proliferating CD8+Ki67+ T cells; experiment: Exposure-response model: tremelimumab exposure versus proliferating CD8+Ki67+ T cells
Procedure: as §2

Row | Molecule | ORR, % (advanced HCC) | Median (95% CI) OS, mo (advanced HCC) | Median PFS (95% CI) (advanced HCC) | clonal expansion of T cells in responders compared to non-responders ([1]; Day 29) | Median expanded T cell clones at Day 29, n [1] | median increased T-cell clonal expansion, difference between arms ([1]; day 29, D versus T75+D arms) | median Cmin [2] | maximum effect (Emax), change from baseline of CD8+ Ki67+ T cell count ([3]; 10th percentile of baseline CD8+ (3 cells/uL)) | maximum effect (Emax), change from baseline of CD8+ Ki67+ T cell count ([3]; 90th percentile of baseline CD8+ (25 cells/uL)) | estimated half-maximal effective concentration (EC50) ([3]; Emax model, Cmin versus maximum change from baseline of CD8+ Ki67+ T cell counts, uHCC patients) | maximum effect (Emax), change from baseline of CD8+ Ki67+ T cell count ([3]; median baseline CD8+ (9 cells/uL))
1 | Durvalumab [reference compound] | 10.6% | 13.6 mo | 2.07 (1.84-2.83) months | not seen | 32 | no significant difference | – | – | – | – | –
2 | Tremelimumab (antibody, light chain variable region; heavy chain variable region, anti-CTLA-4 antibody; arm T = tremelimumab 750 mg monotherapy) VL: PSSLSASVGDRVTITCRASQSINSYLDWYQQKPGKAPKLLIYAASSLQSGVPSRFSGSGSGTDFTLTISSLQPEDFATYYCQQYYSTPFTFGPGTKVEIKRTVAAPSVFIFPPSDEQLKSGTASVVCLLNNFYPREAKV VH: GVVQPGRSLRLSCAASGFTFSSYGMHWVRQAPGKGLEWVAVIWYDGSNKYYADSVKGRFTISRDNSKNTLYLQMNSLRAEDTAVYYCARDPRGATLYYYYYGMDVWGQGTTVTVSSASTKGPSVFPLAPCSRSTSESTAALGCLVKDYFPEPVTVSWNSGALTSGVH | 7.2% | 15.1 mo | 2.69 (1.87-5.29) months | – | 100 | – | 12900 ng/mL | 593% | 77.9% | 5.24 µg/mL | 341%
